Test results published in patent US20230034906A1 (TRINOMAB BIOTECH, published 2023).

Target: T1, HCMV gB glycoprotein of standard strain Towne (gB_Towne strain) (human cytomegalovirus, strain Towne, UniProt F5HB53 25-700)
T1 construct: also called antigen protein gB0049
Experiment: SPR (Biacore), antibody captured on anti-human IgG (Fc) CM5 chip, gB glycoprotein as analyte

B1: TRN1019 (antibody, V domains shown)
VH: QVQLVQSGAEVKKPGESLKISCKGSGYTFTNYWIGWVRQMPGAGLEWMAIIFPRDSYSAYSPSFQGRVTISVDKSISTAYLHWSSLEASDTAVYYCAIYNDLRSGNSWGQGTPLIVSS
VL: DIQMTQSPSSLSASVGDRVTITCRASQSITKYLNWYQQKPGRAPKLLIHTTSTLQSGVPSRFSGSGSGTDFTLTISSLQLEDFGTYYCQQSFSTLWTFGQGTKLDIKR
notes: Fully human antibody; kappa light chain
Does B1 bind?
Result: binds
